Test results published in patent US20080207488A1, “Method for Detecting Peptides Comprising a Cross-B Structure” (priority 2005, published 2008).

Key:
tPA = molecular target: T1, tPA (Homo sapiens, UniProt P00750); assay: Biacore surface plasmon resonance, binding to immobilized tPA; conditions: Hb-AGE 32, amyloid γ-globulins 62.5, albumin-AGE 3.9 μg ml^−1
T1 construct: purchased Boehringer-Ingelheim (Actilyse, Alteplase)
Method: Binding of cross-β structure conformation containing peptides/proteins was studied using surface plasmon resonance technology with a Biacore 2000 apparatus (Biacore AB, Uppsala, Sweden). A standardized amine coupling procedure was used to couple proteins with F domains to a CM5 chip (Biacore AB, Uppsala, Sweden). First, the dextran surface of the chips was activated by a 35 μl injection with a 1:1 mixture of 0.1 M N-hydroxysuccinimide (NHS) and 0.4 M N-ethyl-N′-(dimethylaminopropyl)carbodiimide (EDC) at a flow rate of 5 μl min.^−1. Then, the proteins were covalently coupled to the activated dextran surface. Remaining activated groups in each of the four flow channels were blocked by injection of 35 μl of 1 M ethanolamine hydrochloride pH 8.5. EDC, NHS and ethanolamine hydrochloride were obtained from Biacore. On one chip, on channels 1 to 4, buffer (reference channel), the soluble extracellular part of receptor for advanced glycation endproducts (sRAGE), tPA and K2P-tPA were immobilized. […] Binding of albumin-AGE was determined with a solution of 3.9 μg ml^−1 albumin-AGE in running buffer. albumin-AGE was filtered on a Millex-GV 0.22 μm filter unit (Millipore). […] Binding of Hb-AGE was also tested after centrifugation for 10 min. at 16,000*g alternative to filtration. tPA activation before and after filtration was assessed with a Plg-activation assay. […]

LRP cl-IV = molecular target: T2, LRP cl-IV (Homo sapiens, UniProt Q07954); assay: ELISA, binding of LRP cluster IV to misfolded proteins; conditions: 5 μg/ml coated protein
T2 construct: Cluster IV of the low-density lipoprotein (LDL) receptor-related protein (LRP cl-IV) was cloned from complete cDNA of THP1 cells; made in house; host or cells: HEK293E/S cells; culture supernatant used without purification
T2 sequence (Q07954 3332-3778 limits assumed): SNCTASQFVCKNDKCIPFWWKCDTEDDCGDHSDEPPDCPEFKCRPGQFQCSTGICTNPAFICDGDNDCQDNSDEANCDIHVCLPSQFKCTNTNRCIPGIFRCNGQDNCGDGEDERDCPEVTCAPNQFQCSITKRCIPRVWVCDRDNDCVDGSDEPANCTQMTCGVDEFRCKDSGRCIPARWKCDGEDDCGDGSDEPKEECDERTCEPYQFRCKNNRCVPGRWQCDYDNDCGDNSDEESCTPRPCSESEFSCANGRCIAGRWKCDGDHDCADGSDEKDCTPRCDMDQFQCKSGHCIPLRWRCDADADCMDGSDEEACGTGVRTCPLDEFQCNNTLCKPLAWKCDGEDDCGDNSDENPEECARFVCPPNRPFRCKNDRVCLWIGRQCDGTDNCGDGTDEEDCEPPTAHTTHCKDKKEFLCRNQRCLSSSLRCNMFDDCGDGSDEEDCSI
Method: Binding of LRP cl-IV to misfolded protein was determined using an enzyme linked immuno sorbent assay (ELISA) set-up. For this purpose 50 μl of a 5 μg/ml solution of BSA, BSA-AGE, Hb or Hb-AGE or coat buffer (for negative control) was coated for 1 h with motion. Proteins were diluted in coat buffer (100 mM NaHCO3 pH 9.6). The BSA and Hb controls were prepared freshly by dissolving proteins at 1 mg/ml in PBS by rolling for 10 minutes on a roller bank at room temperature, 10 minutes incubation at 37° C. followed by again 10 minutes incubation at the roller bank. Coat controls were performed with anti-glycated protein antibody 4B5, anti-albumin antibody or anti Hb antibody. After coating the plates were washed twice with PBS/0.1% Tween-20 (v/v) and blocked with 300 μl/well blocking reagent (Roche Diagnostics, Almere, The Netherlands) for 1 h at room temperature with motion. […] After five washes with wash buffer binding of antibody was assessed with a secondary antibody. […] After 5 washes with wash buffer, binding of anti-FLAG antibody and secondary antibodies was assessed with 100 μl/well TMB substrate (ready to use from Tebu Bio). […] After ˜2 minutes absorbance was read at 450 nm.

[1] = ThT fluorescence of CpG-ODN-protein mixtures; type: physicochemical; conditions: for increase in ThT fluorescence / ThT fluorescence enhancement: 1 mg ml^−1 protein; for increase in ThT fluorescence: 30 min. at room temperature (FIG. 4D, E); for ThT fluorescence enhancement: overnight
Method: Fluorescence of ThT-protein/peptide adducts was measured as follows. […] Fluorescence was measured at 485 nm upon excitation at 435 nm. Background signals from buffer, buffer with ThT and protein/peptide solution without ThT were subtracted from corresponding measurements with protein solution incubated with ThT. […] Fluorescence was measured in triplicate on a Hitachi F-4500 fluorescence spectrophotometer (Ltd., Tokyo, Japan).
Enhancement of ThT fluorescence was measured similarly as described above. […]

T1 sequence (P00750 36-562): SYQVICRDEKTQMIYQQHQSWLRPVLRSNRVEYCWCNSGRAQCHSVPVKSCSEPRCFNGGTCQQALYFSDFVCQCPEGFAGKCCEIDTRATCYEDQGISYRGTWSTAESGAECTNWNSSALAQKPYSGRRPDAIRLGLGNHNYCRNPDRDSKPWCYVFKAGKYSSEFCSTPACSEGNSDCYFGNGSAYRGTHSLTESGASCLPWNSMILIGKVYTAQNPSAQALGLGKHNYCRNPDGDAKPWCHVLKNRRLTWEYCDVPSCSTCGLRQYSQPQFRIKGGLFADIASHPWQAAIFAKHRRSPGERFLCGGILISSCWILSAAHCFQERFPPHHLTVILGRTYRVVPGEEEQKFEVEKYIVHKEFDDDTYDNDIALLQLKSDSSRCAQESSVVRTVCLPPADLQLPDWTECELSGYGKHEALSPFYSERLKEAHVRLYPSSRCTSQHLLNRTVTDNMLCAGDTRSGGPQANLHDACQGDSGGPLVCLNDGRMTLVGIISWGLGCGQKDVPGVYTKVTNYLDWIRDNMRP

**Q.** What does the source list for “albumin-AGE: advanced glycation end-product modified bovine serum albumin”?
**A.** binding to immobilized tPA (tPA): bind; binding of LRP cl-IV (LRP cl-IV): binds specifically

**Q.** For lysozyme: chicken egg-white lysozyme, which “increased ThT fluorescence” value ([1]; 1 mg ml^−1 protein exposed to 21.4 μg ml^−1 CPG-ODN (FIG. 4F)) is on record?
**A.** The value was “no effect”.

**Q.** What about the “increase in ThT fluorescence” value ([1]; 10.4 μg ml^−1 CPG-ODN) of the same substance?
**A.** The value was “approximately 8 times”.

**Q.** And the ThT fluorescence enhancement ([1]; 10.7 μg ml^−1 CPG-ODN)?
**A.** Its ThT fluorescence enhancement is 1.1 factor.

**Q.** What about the ThT fluorescence enhancement ([1]; 21.4 μg ml^−1 CPG-ODN) of the same substance?
**A.** The ThT fluorescence enhancement was 1.2 factor.

**Q.** And the “increase in ThT fluorescence” value ([1]; 21.7 μg ml^−1 CPG-ODN)?
**A.** The value was ~7 times.

**Q.** What about the ThT fluorescence enhancement ([1]; 42.8 μg ml^−1 CPG-ODN) of the same substance?
**A.** The ThT fluorescence enhancement was 1.4 factor.
